Data as given in a protein production outcome set (Wang et al. 2014).

Assay: label from the status in PepcDB records
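Note: failed if final PepcDB status was selected cloned or expressed and not failed if soluble or beyond.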

Sequence | protein production
MSDSATEYDKLFIGGKWTKPSTSDVIEVRCPATGEYVGKVPMAAAADVDAAVAAARAAFDNGPWPSTPPHERAAVIAAAVKMLAERKDLFTKLLAAETGQPPTIIETMHWMGSMGAMNYFAGAADKVTWTETRTGSYGQSIVSREPVGVVGAIVAWNVPLFLAVNKIAPALLAGCTIVLKPAAETPLTANALAEVFAEVGLPEGVLSVVPGGIETGQALTSNPDIDMFTFTGSSAVGREVGRRAAEMLKPCTLELGGKSAAIILEDVDLAAAIPMMVFSGVMNAGQGCVNQTRILAPRSRYDEIVAAVTNFVTALPVGPPSDPAAQIGPLISEKQRTRVEGYIAKGIEEGARLVCGGGRPEGLDNGFFIQPTVFADVDNKMTIAQEEIFGPVLAIIPYDTEEDAIAIANDSVYGLAGSVWTTDVPKGIKISQQIRTGTYGINWYAFDPGSPFGGYKNSGIGRENGPEGVEHFTQQKSVLLPMGYTVA | not failed
MSDSKSHDPNQMTGAAMIVRAMIDHGVEHIFGYPGGSVLPIYDELFQNSEKLQHILVRHEQGAGHAAEGYARSTGKPGVVLVTSGPGATNMVTPLADALMDSIPIVCITGQVPTHLIGNDAFQECDTVGITRPCTKHNWLVRDIKDLARVLHEAFYVATSGRPGPVVVDVPKDVQFATGTYHPPRKSDVHVSYTPRLKGDPGQIRKAVALLASAKKPVIYSGGGVVNSGEEAWKLLRELVEVTDFPITSTLMGLGAYPASGKNWLGMLGMHGTYESNMTMHDCDVMLCIGARFDDRITGRTDAFSPNSKKIHIDIDPSSINKNIRVDVPIIGDVAHVLADLLAAFKAEAKKADTKAWWLQIAAWRGRNSLAYKKNNDVILPQYAIERLYAATRGRDTYITTEVGQHQMWAAQFYGFERPRRWMTSGGLGTMGYGLPAALGVQVAHPDSLVIDIAGDASVQMTMQEMATAVQYELPIKIFILNNQYMGMVRQWQQLLHGNRLSHSYTEAMPDFVKLADAYGGVGMQVFKPSDLDGAIQDMIKVKKPVLFDCRVASLENCFPMIPSGKAHNEMLLPSEANDETTAAAFAGGGALV | failed
MSDSLFLSLAKFDVILSGSTNSNILHDVMGQVIDRSEIQDLNANNKPTKKIDFHLRDQHDTRLACILWGKYAEIVDKACQESTDGIVVCLIRFAKINLYNDTRSVSNFFDVSQVFVDPTLAELDLFKQSIP | failed
MSDTVLTGLLDTVWQQFGRGTKDRHHPARHPTLATIGTDGPDLRTLVLRAASHAEATLEFHTDAASPKVAHIRRDARVAIHIWIPKASLQVRAKAIAKILPGDPNLFAQLPEAARMNYQGPVPGTPLPAEPDATPNRFTRLICHLSEIDVLHLTTPHQRAVYTAPDWRGIWVSP | not failed
MSDVSTQSPKVGFVSLGCPKALVDSEQIITQLRAEGYEISGTYGGADLVVVNTCGFIDEAVQESLDAIGEALAENGKVIVTGCLGAKKDAAGQDIITSVHPKVLAVTGPHALGEVMEAVHTHLPKPHDPFIDLVPPQGIKLTPKHYAYLKISEGCNHRCSFCIIPSMRGDLVSRPVAEVMLEAENLLKAGVKELLVISQDTSAYGVDVKFRTGFWNGRPLKTRMTELVGALGELAAQYGAWVRLHYVYPYPSVDEVMPLMAEGKVLPYLDVPLQHAHPEVLKRMKRPANAEKTLDRIRAWREVCPELTIRSTFIAGFPGETEEEFQTLLDFIAEAELDRVGCFAYSPVEGATANDLPGALPDEVREERRARFMEVAERVSARRLQRKVGKTLRVLVDEVNQDGGIGRSSADAPEIDGLVYIAPPSKPYKRYKAGDFVSVKITGADGHDLWGEVLEHHHHHH | failed
MSDVTVVAMVTNAYPVNEFQRSSGGTGKVRNIMLEDGTGSIRMALWDSDAETEISEGDVVKLIHGYAKESGEYMDLSTGRFGRLEHHHHHH | failed
MSEAEAKLWQHLRAGRLNGYKFRRQQPMGNYIVDFMCVTPKLIVEADGGQHAEQAVYDHARTVYLNSLGFTVLRFWNHEILQQTNDVLAEILRVLQELEKQ | not failed
MSEAVPSVVAIDIGTHKVSVLIGKVHAPDNIQVIGMATARNRGMNKGKIVSLDKVISAIKNAVAEAENMAECRVHTAWVSIPTTELQSFYASGRIPIAKADHTITTNEVVRALELAKASHVTPDYYLASAVPLGFELDDSSEWVQNPINMSAHSMTGHYQLMMMPISIMQNLDRAMKGASIGVEKMVVSCLATAEASLLKDEKEYGVCLLDIGAGTTNIAVYLDGRLALARTLQRGGENVTRDIAAVLQTTTEEAERIKILHGCVDLSAIKPDQMIQVQAIDGPQTISRIELAEIIIARYEEILGQVRDELERSGAIHGLYHGVVLTGDACQIEGMISLARRILGVSAHLGNPPLQVYADDQHQASIRRSMYATAAGLLMFSQSELQDTVEDSEEASQRSLWNRVANGWNTLNTKLKAIF | failed
MSEAYFRVESGALGPEENFLSLDDILMSHEKLPVRTETAMPRLGAFFLERSAGAETDNAVPQGSKLELPLWLAKGLFDNKRRILSVELPKIYQEGWRTVFSADPNVVDLHKMGPHFYGFGSQLLHFDSPENADISQSLLQTFIGRFRRIMDSSQNAYNEDTSALVARLDEMERGLFQTGQKGLNDFQCWEKGQASQITASNLVQNYKKRKFTDMED | failed
MSEGMMLTTLDRLTIYAVLCFISLCALGLGETTQAQLMPVLGTAASIFGIWLEMRSEQDTTQQPHR | failed
MSEINYSTVQYYLVLILIFIYLSLFVLEKKWPLRKATRPLLPRLAINFTFTLLVYVIASLFISPLAKATVLFTFSHDFGLLSMLPFNQWVVFILGFLLMDLSFYYWHALNHKLPLLWRFHVVHHADPDLDVSTAMRFHCVEIMYSSLFRLVQLGLIGVSPLLFFCYEFFFQAHTFFQHSNIKLPFRFERLINKIIVTPRMHGIHHSNYLNETNSNYGVVFSFWDRLHQTIKLDIPQQAIIIGVPGYSKPSDNSLIRLLLMPIKAQRHYWQIKKDFHFSRKSKTSDKKVRTLCE | failed
MSEKMVAIMKTKPGYGAELVEVDVPKPGPGEVLIKVLATSICGTDLHIYEWNEWAQSRIKPPQIMGHEVAGEVVEIGPGVEGIEVGDYVSVETHIVCGKCYACRRGQYHVCQNTKIFGVDTDGVFAEYAVVPAQNIWKNPKSIPPEYATLQEPLGNAVDTVLAGPISGKSVLITGAGPLGLLGIAVAKASGAYPVIVSEPSDFRRELAKKVGADYVINPFEEDVVKEVMDITDGNGVDVFLEFSGAPKALEQGLQAVTPAGRVSLLGLYPGKVTIDFNNLIIFKALTIYGITGRHLWETWYTVSRLLQSGKLNLDPIITHKYKGFDKYEEAFELMRAGKTGKVVFMLK | not failed
MSEKRLPLKPVLRIDFPPGERLGHGKVELMQLIAETGSISAAGRAMDMSYRRAWLLVDALNHMFRQPVICSQRGGKQGGGAALTVFGAELLERYRGMEERMNEALREDIDWLEANRNPQDALNRDREPPTL | not failed
MSELEEDFAKILMLKEERIKELEKRLSEKEEEIQELKRKLHKCQSVLPVPSTHIGPRTTRAQGISAEPQTYRSFHDLRQAFRKFTKSERSKDLIKEAILDNDFMKNLELSQIQEIVDCMYPVEYGKDSCIIKEGDVGSLVYVMEDGKVEVTKEGVKLCTMGPGKVFGELAILYNCTRTATVKTLVNVKLWAIDRQCFQTIMMRTGL | failed
MSEMAASSAISLLDIKLRRFGVGASNHELRLTKWFKGDQAGAPTRRFTCFADMLAPIRRSEKSEERRFDQKMSAHGAGIKTSSSAVPFASPKSRFLSKQEKFYPRCTPRLTGPQSRDTPPKRDTGIANEKDWGIDLLNENVNEAGTNEDGSSWFRESGHDLGDNGYRCRWSRMGGRSHDGSSEWTETWWEKSDWTGYKELGVEKSGKNSEGDSWWETWQEVLHQDEWSNLARIERSAQKQAKSGTENAGWYEKWWEKYDAKGWTEKGAHKYGRLNEQSWWEKWGEHYDGRGSVLKWTDKWAETELGTKWGDKWEEKFFSGIGSRQGETWHVSPNSDRWSRTWGEEHFGNGKVHKYGKSTTGESWDIVVDEETYYEAEPHYGWADVVGDSTQLLSIQPRERPPGVYPNLEFGPSPPPEPDLPLTNHNDITSVCLAY | failed
MSENKKKFDKKGAKNMDEISKTLFAPIYPIIAENIINRFGITAGTCIDIGSGPGALSIALAKQSDFSIRALDFSKHMNEIALKNIADANLNDRIQIVQGDVHNIPIEDNYADLIVSRGSVFFWEDVATAFREIYRILKSGGKTYIGGGFGNKELRDSISAEMIRKNPDWKEFNRKNISQENVERFQNVLDEIGISSYEIILGDEGFWIIISKTDQEVI | not failed
MSENLTMSELMDSFELKHFHKGEIVKGKVISVKNDEIIVNIGHFADGVVPRNEISNDKNFDINSINVDDDIFVMVLSGDDGEGNVLLSKKRADAIKVCDDLKEAFEEEKSIKVSLKEVVKGGIVGDFNGLRVFMPASQCAGRRIENLEELVGKTLEVRVIEFNKENRKVVVSRRVIDEEIRNNEKKALWSSIKEGEKRKGKVTRLAKFGAFVDIGGVEGLVHLSDMSWSRVHKPEEVVSVGDEVEVFVSEVDMDRERIALSLKDVIKNPWETLEGLKVGNVVLGKVTNFIKVGAFVEVLPGIEGLVHISEITDENIAKPSDILELGQEVKVKILNIDDENKKMSLSIKDAVETSNEYMQYNDEEEGYSLADLFKGLNLLEHHHHHH | not failed
MSENQSEEVQQIEKLYEFSERLNASKDKSQNVEDYEGIIKMSKTSMKAKQLASQLIPRYFKFFPSLSTEAFDAHMDCIDDGDLGVRVQAIRGLPLFCKDTPDILSKIVDVLVQLLNTEEPVERDAVHKALMSLLRQDPKASSTALFTHAGVTPTTDDQIREKVLNFIRDKVIPLKGELLKPQEEMERHITDLIKQSLEDVTGGEFKMFMDFLTSLSIFGGKAPPERMQELVEIIEGQADLNAQFEFSDTDHIDRLISCLQLALPFFARGAPSSRFLIYLNKHIIPVFDKLPEERKLDLLKALADISPYTTAQEARQLLPSIVELLKIYMPARKTGEEMNFTYVECLLYAFHHLAHKVPNATNSLCGYKIVTGQPSDRLGEDFSELNKDFTERLTIVEDLTKATMKKLTQGMTEHNKAMSAAKTDEEKASIVSTLTCAIFYFS | failed
MSEPFTPGDLKTILHSKRANLYYLEHCRVLVNGGRVEYVTDAGKQSLYWNIPIANTTTLLLGTGTSVTQAAMRELAKAGVMVGFCGGGGTPLFSAGEVEMEVAWQSPQSEYRPTEYLQWWARFWFDDDKRLQAAKQLQQARLARIRAQWLDNRQLREAGFEIEPSRLTQLLDASLASLERAPDHTALLTEEARLSKQLFRLAAQATAYGEFTRAKRGGGVDPANRFLDHGNYLAYGLGATAAWVLGLPHSLAILHGKTRRGGLVFDAADLVKDAAILPQAFVSAMKGDDEQTFRQQCIEQLARGEALDFMIDQLQRIAEQLGRDG | failed
MSEPRLPERAEWGTFALILACYGAWLAVIFGLAGLSLWLAIAAMGLVAALHSSLTHEALHGHPFRYRWLNEALMALPLTLCIPYNRFRDLHLAHHLDANLTDPYDDPESNYLDPAIWSRLPGWQRRLYALNNTLAGRMVLGPLIGTACFLRDEARGALRGDRAILLAWALHLPGMAGVLWVVSLSPMPIWAFALSAYIGLGLLKIRTFLEHRAHEKSRARTVVIEDRGLLAFLFLNNNYHVVHHMNPGAPWYALPALYRAGKERYLGCNEGYSYRSYGEVFRRYFWRAKDPVPHPLWPKP | failed
MSEPSLDKSSFNQPSWRNALAGLQMLFVAFGALVLMPLITGLDPSVALFTAGIGTILFQFITKQQVPLFLASSFVFIAPIAYSVQTWGIAVAMGSLFVTGLVYVLIASVVAVRGAGFLHKLMPPVVTGPIIMVIGLSLAPIAVNMAMGKAGDGSAVLFPYADSLIVSMSALITTLLVATLGKGIFRLIPIMAGVFVGYIMASVMGMVSTEAIANSEWFAIPNFVTPEFNLTAILFMLPVAIAPAIEHVGDIIAIGSVTGKDYTKSPGLHRTLLGDGLATSLASLFGGPPNTTYSEVTGAVMLTKMFNPKIMLWAAAFAIGLAFVAKFGLALQTIPAPVMGGILILLFGSIAGVGMNILIKAQVDLAEQRNLVIVSTTLVFGIGGMAIGNDDFSLTGISLCGLVAIALNAIIPQTQLEEESLVQEETIVEDLVEHAKGKEIN | failed
